Measurements as given in patent US7030099B2, “Tumor specific promoters of the midkine gene that allow for selective expression in P53-inactivated cells” (Research Corporation Technologies, Inc., priority 2000, dated 2006).

B1: MK1.0: 1.0 kb of the human midkine genomic gene, base sequence SEQ ID NO: 2 (nucleic acid, listed as Homo sapiens)
DNA: GGCCGCGCTCGTCGGGGCCGGGCGGGGGCCGATCCCTCCGGCTTCCCTTCCCGCGGAGAACAACAATGAAAGTGAAAGAGGGGTGGGGCGGGGGCGAGCCCGGGTTCTGTGGCCCATTTGCCCTGTGGCCTTGAGCAAGCCCCTCCCCCAGGCCTCGGGGGCTCTCCCGGTTTGGGGGAACCGGGCGAGGCAATGCCACAGGCCCAGGGTTAGAGGGGGTGGGCACTTGCAGCTGCCGATGTGGCTGGATCTGGAACTTCTCAGACGGCTCCTGTCAGCGCCAAGTTTCACCAAATCCAGGCCTGCGGGCTCCTCCCCCAGGACCCCCACTCGCAGTCCCTCAAGCCTGTGCTCCCGGAAAGGCACTGGGCGACCGCACCCGTGGCTTTCTCTGGGCGACCGGGTCCCAGACTCCCCCCAGCACAGCAGAGCGCTTCCCTGCCCACCCGCGGAAACCGCCCCAGGTGGCCGCGCCCCCTCCCCAGCAGCCAGCAGGGCGCCAGGGCTGAGCCGGCCGTGGAGGGGAGCGGGTCCCGGGGGTTATACAGGCGCCGGGCGTCCGCGGCAGGCAAGAGAAGCTGAGGCCTGAGAACGGCCCGGGCCTTGGCGTACGGCAGGGGACGACCTGGGATGGGGGCAGCGGGCGGCGGCGCAGGGAGTGGGCCGGGGCCGGTGTGCGCGGGCGGGACGGGGCCGGGGTCGGGAGACCACCGCTCGGAAGATGGGGCCGGGAGAGGCCGCCGTCGCAGCGCAGAGGGCACCGGCGGGGAGACGCGAGGACGCGGGGCCGGGAACACGGACGCCGGAGTAGAAGCGCGGGGGGGGCGGGCTGGAGCGGGGGCGGGGACGCCGGGGTCGGGGGCGGTGCGGGTTTGAGGGGAGGGGGCGGGGCGGGTCCTTCCCTGGGGGGGTGGGGAGAGGGGGCGGGGGCCCATGTGACCGGCTCAGACCGGTTCTGGAGACAAAAGGGGCCGCGGCGGCCGGAGCGGGACGGGCCCGGCGCGGGAGGGAGCGAAGCAGCGCGGGCAGCGAGCGAGTGAG
B2: p124: c-erbB-2 genomic region −86/+38, SEQ ID NO: 10 (nucleic acid, listed as Homo sapiens)
DNA: CGCGCTTGCTCCCAATCACAGGAGAAGGAGGAGGTGGAGGAGGAGGGCTGCTTGAGGAAGTATAAGAATGAAGTTGTGAAGCTGAGATTCCCCTCCATTGGGACCGGAGAAACCAGGGGAGCCC
modifications: expressed or natural sequence
B3: p533: c-erbB-2 genomic region from −435 to +38, SEQ ID NO: 7; conventionally used promoter (nucleic acid, listed as Homo sapiens)
DNA: GGGGGTCCTGGAAGCCACAAGGTAAACACAACACATCCCCCTCCTTGACTATCAATTTTACTAGAGGATGTGGTGGGAAAACCATTATTTGATATTAAAACAAATAGGCTTGGGATGGAGTAGGATGCAAGCTCCCCAGGAAAGTTTAAGATAAAACCTGAGACTTAAAAGGGTGTTAAGAGTGGCAGCCTAGGGAATTTATCCCGGACTCCGGGGGAGGGGGCAGAGTCACCAGCCTCTGCATTTAGGGATTCTCCGAGGAAAAGTGTGAGAACGGCTGCAGGCAACCCAGGCGTCCCGGCGCTAGGAGGGACGACCCAGGCCTGCGCGAAGAGAGGGAGAAAGTGAAGCTGGGAGTTGCCGACTCCCAGACTTCGTTGGAATGCAGTTGGAGGGGGCGAGCTGGGAGCGCGCTTGCTCCCAATCACAGGAGAAGGAGGAGGTGGAGGAGGAGGGCTGCTTGAGGAAGTATAAGAATGAAGTTGTGAAGCTGAGATTCCCCTCCATTGGGACCGGAGAAACCAGGGGAGCCC
B4: p344: c-erbB-2 genomic region −306/+38, SEQ ID NO: 8 (nucleic acid, listed as Homo sapiens)
DNA: CTAGGGAATTTATCCCGGACTCCGGGGGAGGGGGCAGAGTCACCAGCCTCTGCATTTAGGGATTCTCCGAGGAAAAGTGTGAGAACGGCTGCAGGCAACCCAGGCGTCCCGGCGCTAGGAGGGACGACCCAGGCCTGCGCGAAGAGAGGGAGAAAGTGAAGCTGGGAGTTGCCGACTCCCAGACTTCGTTGGAATGCAGTTGGAGGGGGCGAGCTGGGAGCGCGCTTGCTCCCAATCACAGGAGAAGGAGGAGGTGGAGGAGGAGGGCTGCTTGAGGAAGTATAAGAATGAAGTTGTGAAGCTGAGATTCCCCTCCATTGGGACCGGAGAAACCAGGGGAGCCC

Key:
[1] = tested on: lung cancer cells QG-56, neuroblastoma NGP; test: CAT assay of promoter transcription activity, tumor cells; type: cell-based, human; settings: tumor cells versus normal cells
Protocol: Using the above plasmid, or a plasmid pCAT-Control (manufactured by Promega) having the promoter of SV40 virus, and a plasmid pCAT-Basic (manufactured by Promega) containing no promoters, gene introduction was performed on the lung cancer cells QG-56, the neuroblastoma NGP, and the normal human fibroblasts MRC-5 that were being cultured in a DMEM (Sigma) supplemented with 10% bovine fetal serum. After 10 μg each of these plasmids and lipofectin (Life Technologies) were mixed, it was allowed to stand at room temperature for 30 minutes to form a complex. Then the complex, after removing the bovine fetal serum therefrom, was contacted with the cells. Eight hours later culture medium supplemented with bovine fetal serum was added, cultured for 40 hours, and then the gene-introduced cells were disrupted by ultrasonication. After centrifugation, the supernatants were used to examine their transcription activities with the known CAT assay method (Gorman, C M et al., Mol. Cell. Biol., 2:1044–1051, 1982) using [^14C]-chloramphenicol and acetyl CoA. At this time, in order to normalize the efficiency of gene introduction, 1 μg of the β-galactosidase gene (pCH110, manufactured by Amersham) was introduced at the same time, and the β-galactosidase activity (Heromel, P. et al., Cell, 39:653–662, 1984) was determined.

[2] = tested on: immortalized MRC-5 cells (p53 functions inactivated); test: In vitro sensitivity to GCV of promoter-TK gene-introduced cells (Cell Counting Kit-8 survival); type: cell-based, human; settings: HSV-TK gene powered by the promoter, GCV seven days, FIG. 2B
Protocol: (§1) (1) In order to examine cytotoxic effects by the transcription activity of the promoter obtained from the midkine gene, herpes simplex virus thymidine kinase (HSV-TK), a suicide gene, was ligated downstream of MK0.6 and MK2.3, and the plasmid was introduced in cells, and a prodrug gancyclovir (GCV) was added into the culture medium of the gene-introduced cells. The method of determining the cytotoxic effect by this system is as described in Moolten, FL. Cancer Gene Ther., 1:279–287, 1994.
(§2) First, the CMV promoter of pcDNA3 (manufactured by Invitrogen) was removed using NruI and HindIII sites, to which MK2.3 or Mk0.6 was inserted, and then using the EcoRV site, the HSV-TK gene excised from pMK (Brinster, R L et al., Cell, 27:223–231, 1981) with BglI and EcoRI was inserted. Each of the plasmids thus obtained (MK2.3-TK and MK0.6-TK) was introduced, as described above, using lipofectin into MRC-5 which are normal cells, or MRC-5 cells that had been immortalized by inactivating the functions of the p53 tumor suppressor gene. In order to utilize the expression of the Neo gene contained in pcDNA3 as drug resistant markers, the cells were cultured with 400 μg/ml of G418 (manufactured by Life Technologies) for ten days to establish the cells that expressed MK2.3-TK and MK0.6-TK, respectively. These cells were then plated at 500 cells/well of 96-well culture plates, and were cultured in the presence of various concentrations of GCV (manufactured by F. Hoffman-La Roche) for seven days. The survival rate of the cells was examined using the Cell Counting Kit-8 (manufactured by Dojin Kagaku). The survival of the cells at a GCV concentration of 0 μg/ml was set as 100%, and the survival for each experiment group is shown in terms of percentage in FIG. 2A and FIG. 2B.

normal MRC-5 cells = test: as above; type: cell-based, human; settings: HSV-TK gene controlled by the promoter, GCV seven days, FIG. 2A
Protocol: as §1, §2

[3] = tested on: human breast cancer cells OCUBM, MCF7, BT549; test: Luciferase assay of c-erbB-2 promoter activity, breast cancer cells; type: cell-based; settings: FIG. 7A
Protocol: With the transcription initiation site of the c-erbB-2 gene as +1, DNA that corresponded to a genomic region (p533) from −435 to +38 and that had the sequence set forth in SEQ ID NO: 7 was amplified by the PCR method, and then the DNA fragment was integrated into the pGEM-TEasy (manufactured by Promega), and the sequences of the PCR product was determined. Thus, after inserting this PCR product into the SmaI site of pGL2-Basic (manufactured by Promega), it was cleaved with BlnI/SmaI, PstI/SmaI, and BssHII/SmaI using the restriction enzyme sites present on the c-erbB-2 genomic gene to construct plasmids in which the genomic regions of c-erbB-2, p344 (−306/+38) (DNA having the base sequence set forth in SEQ ID NO: 8), p251 (−213/+38) (DNA having the base sequence set forth in SEQ ID NO: 9) and p124 (−86/+38) (DNA having the base sequence set forth in SEQ ID NO: 10) are localized upstream of the Firefly luciferase gene, respectively. Using the plasmid pGL2-Control (manufactured by Promega) having the promoter of SV40 virus and the plasmid pGL2-Basic (manufactured by Promega) containing no promoters, gene introduction was performed in human breast cancer cells OCUBM, MCF7, BT549, normal human fibroblasts HEF, MRC-5, human malignant melanoma A875, and human lung cancer cells QG-56, all of which were cultured in DMEM (Sigma) supplemented with 10% bovine fetal serum. Firstly, after 10 μg each of these plasmids and lipofectin (Life Technologies) were mixed, it was allowed to stand at room temperature for 30 minutes to form a complex of DNA and lipid. […] After 48 hours-culture, the cells were disrupted using the Dual-Luciferase Reporter Assay System (manufactured by Promega), and the Firefly luciferase activity therein was determined using the reagents in the same kit. In order to normalize the efficiency of gene introduction, 1 μg of pRL-TK plasmid (manufactured by Promega) was included in each gene-introduced group, and the Renilla luciferase activity by the TK promoter was determined, based on which the Firefly luciferase activity was corrected.

[4] = tested on: human malignant melanoma A875, human lung cancer cells QG-56; test: Luciferase assay of c-erbB-2 promoter activity, non-breast tumor cells; type: cell-based; settings: human malignant melanoma cells and human lung cancer cells; FIG. 7C
Protocol: (§3) With the transcription initiation site of the c-erbB-2 gene as +1, DNA that corresponded to a genomic region (p533) from −435 to +38 and that had the sequence set forth in SEQ ID NO: 7 was amplified by the PCR method, and then the DNA fragment was integrated into the pGEM-TEasy (manufactured by Promega), and the sequences of the PCR product was determined. Thus, after inserting this PCR product into the SmaI site of pGL2-Basic (manufactured by Promega), it was cleaved with BlnI/SmaI, PstI/SmaI, and BssHII/SmaI using the restriction enzyme sites present on the c-erbB-2 genomic gene to construct plasmids in which the genomic regions of c-erbB-2, p344 (−306/+38) (DNA having the base sequence set forth in SEQ ID NO: 8), p251 (−213/+38) (DNA having the base sequence set forth in SEQ ID NO: 9) and p124 (−86/+38) (DNA having the base sequence set forth in SEQ ID NO: 10) are localized upstream of the Firefly luciferase gene, respectively. Using the plasmid pGL2-Control (manufactured by Promega) having the promoter of SV40 virus and the plasmid pGL2-Basic (manufactured by Promega) containing no promoters, gene introduction was performed in human breast cancer cells OCUBM, MCF7, BT549, normal human fibroblasts HEF, MRC-5, human malignant melanoma A875, and human lung cancer cells QG-56, all of which were cultured in DMEM (Sigma) supplemented with 10% bovine fetal serum. Firstly, after 10 μg each of these plasmids and lipofectin (Life Technologies) were mixed, it was allowed to stand at room temperature for 30 minutes to form a complex of DNA and lipid. Then the complex, after removing the bovine fetal serum therefrom, was contacted with the cells. Eight hours later culture medium supplemented with bovine fetal serum was added. After 48 hours-culture, the cells were disrupted using the Dual-Luciferase Reporter Assay System (manufactured by Promega), and the Firefly luciferase activity therein was determined using the reagents in the same kit. In order to normalize the efficiency of gene introduction, 1 μg of pRL-TK plasmid (manufactured by Promega) was included in each gene-introduced group, and the Renilla luciferase activity by the TK promoter was determined, based on which the Firefly luciferase activity was corrected.

[5] = tested on: normal human fibroblasts HEF, MRC-5; test: Luciferase assay of c-erbB-2 promoter activity, normal fibroblasts; type: cell-based; settings: FIG. 7B
Protocol: as §3

| Molecule | tumor-specificity of promoter activity [1] | transcription activity compared with SV40 promoter [4] | promoter activity compared with SV40 promoter [5] | also measured |
| --- | --- | --- | --- | --- |
| MK2.3: 2.3 kb of the human midkine genomic gene, base sequence SEQ ID NO: 3; previously reported promoter [reference compound] | weak |  |  | sensitivity to GCV compared to that of the parent strain [2]: 1000 fold; sensitivity to GCV compared to that of the parent strain (normal MRC-5 cells): 500 fold |
| B1 | weak |  |  |  |
| B2 |  | lower than the SV40 promoter |  | transcription activity compared with other c-erbB-2 promoter fragments [3]: marked low compared with the p251 promoter |
| B3 |  |  | more potent than the SV40 promoter activity in some cases |  |
| B4 |  | lower than the SV40 promoter | more potent than the SV40 promoter activity in some cases |  |
